Common to all, as to assay: high-throughput RNA pulldown from lysate on Ni-NTA beads; HRP: 50 mM Tris pH 8, 150 mM NaCl, 1 mM beta-mercaptoethanol, 50 ug/ml BSA, 3 ug/ml yeast RNA, 0.5% heparin; ITC and FP: Tris pH 8, 200 mM KCl, 5% glycerol; MST: 50 mM Tris pH 8, 200 mM NaCl, 1 mM DTT, BSA, heparin, 0.05% Tween 20
Holding throughout (conditions): tags: N-terminal His-eGFP

For data set [1], the target named is T1, GFP-9S library array, motif 4 ND N98D;D124P (synthetic construct, N98D;D124P).
T1 chain: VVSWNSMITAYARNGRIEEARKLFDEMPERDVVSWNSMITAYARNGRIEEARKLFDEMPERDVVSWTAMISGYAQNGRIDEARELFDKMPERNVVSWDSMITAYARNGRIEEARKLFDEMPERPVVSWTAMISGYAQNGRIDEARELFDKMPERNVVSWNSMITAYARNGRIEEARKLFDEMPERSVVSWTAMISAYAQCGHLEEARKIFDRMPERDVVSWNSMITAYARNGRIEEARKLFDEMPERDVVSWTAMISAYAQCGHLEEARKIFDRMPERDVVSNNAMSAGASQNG

For data set [2], the target named is T2, GFP-9S library array, motif 4 ND N98S;D124G (synthetic construct, N98S;D124G).
T2 chain: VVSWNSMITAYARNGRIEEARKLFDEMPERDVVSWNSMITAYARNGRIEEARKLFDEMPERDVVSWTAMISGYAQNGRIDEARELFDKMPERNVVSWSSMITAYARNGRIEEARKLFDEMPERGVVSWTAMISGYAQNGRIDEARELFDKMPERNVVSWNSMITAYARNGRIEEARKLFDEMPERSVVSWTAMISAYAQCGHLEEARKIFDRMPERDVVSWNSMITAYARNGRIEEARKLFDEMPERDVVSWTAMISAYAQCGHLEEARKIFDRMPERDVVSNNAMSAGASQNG

Data set [3] has as its target T3, GFP-9S library array, motif 4 ND N98K;D124Q (synthetic construct, N98K;D124Q).
T3 chain: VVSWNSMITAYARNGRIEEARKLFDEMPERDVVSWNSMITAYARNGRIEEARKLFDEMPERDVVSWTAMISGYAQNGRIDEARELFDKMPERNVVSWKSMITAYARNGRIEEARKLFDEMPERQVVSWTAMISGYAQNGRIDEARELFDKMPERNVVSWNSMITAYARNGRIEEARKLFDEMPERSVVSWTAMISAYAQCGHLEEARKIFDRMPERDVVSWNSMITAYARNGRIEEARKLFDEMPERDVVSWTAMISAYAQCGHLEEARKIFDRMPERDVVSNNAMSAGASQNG

Data set [4] concerns the target T4, GFP-9S library array, motif 4 ND N98F;D124G (synthetic construct, N98F;D124G).
T4 chain: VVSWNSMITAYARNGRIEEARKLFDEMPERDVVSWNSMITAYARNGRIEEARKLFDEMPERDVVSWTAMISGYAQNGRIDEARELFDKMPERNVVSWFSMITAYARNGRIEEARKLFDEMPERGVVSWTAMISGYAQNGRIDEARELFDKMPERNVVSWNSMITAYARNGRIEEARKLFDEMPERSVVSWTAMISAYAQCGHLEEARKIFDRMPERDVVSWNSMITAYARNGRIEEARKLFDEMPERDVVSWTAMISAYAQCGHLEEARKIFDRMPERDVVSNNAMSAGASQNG

For data set [5], the target named is T5, GFP-9S library array, motif 4 ND N98M;D124H (synthetic construct, N98M;D124H).
T5 chain: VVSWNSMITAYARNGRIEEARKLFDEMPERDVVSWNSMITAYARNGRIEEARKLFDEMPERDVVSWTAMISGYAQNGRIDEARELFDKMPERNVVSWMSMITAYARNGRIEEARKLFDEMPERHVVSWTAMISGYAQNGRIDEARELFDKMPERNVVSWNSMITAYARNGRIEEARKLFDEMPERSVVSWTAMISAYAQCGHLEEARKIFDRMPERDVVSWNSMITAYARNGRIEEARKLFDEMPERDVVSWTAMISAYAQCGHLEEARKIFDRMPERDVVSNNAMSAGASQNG

As to AUUAUACGUGA (ssRNA) [IR-rpoA-U], the Kd worked out at 501 nM in data set [1] (label: 5' IRDye 800CW); 182 nM in data set [2] (label: 5' IRDye 800CW); 63.7 nM in data set [3] (label: 5' IRDye 800CW); 124 nM in data set [4] (label: 5' IRDye 800CW); 412 nM in data set [5] (label: 5' IRDye 800CW).

As for AUUACACGUGA (ssRNA) [Cy5-rpoA], the dissociation constant (Kd) was found to be 202 nM in data set [1] (label: 5' Cy5); 181 nM in data set [2] (label: 5' Cy5); 71.3 nM in data set [3] (label: 5' Cy5); 74.1 nM in data set [4] (label: 5' Cy5); 242 nM in data set [5] (label: 5' Cy5).

Take AUUAAACGUGA (ssRNA) [IR-rpoA-A]: the Kd in data set [1] (label: 5' IRDye 800CW) came out at 341 nM; in data set [2] (label: 5' IRDye 800CW), 122 nM; in data set [3] (label: 5' IRDye 800CW) it was 110 nM; in data set [4] (label: 5' IRDye 800CW) it was 139 nM; in data set [5] (label: 5' IRDye 800CW) it was 574 nM.

AUUAGACGUGA (ssRNA) [Cy5-rpoA-G]: the Kd was found to be 157 nM in data set [1] (label: 5' Cy5); 157 nM in data set [2] (label: 5' Cy5); 81.3 nM in data set [3] (label: 5' Cy5); 75.9 nM in data set [4] (label: 5' Cy5); 257 nM in data set [5] (label: 5' Cy5).
